Key:
[1] = biological target: cynomolgus CD3 (cynomolgus monkey) (UniProt Q95LI5); test: cell-based or functional assay
[2] = biological target: cynomolgus CD3 (cynomolgus monkey) (UniProt Q95LI5); test: FACS titration on purified cynomolgus T cells
[3] = biological target: cynomolgus CD3 (cynomolgus monkey) (UniProt Q95LI5); test: FACS titration of cynomolgus T cells

B1: BSSTEAP2/CD3-001 (bispecific antibody, IgG4, V domains shown)
VH 1: QVQLQQSGPGLVKPSQTLSLTCAISGDSVSSNRAAWNWIRQSPSRGLQWLGRTYYRSKWYNDYAVSLRSRITINPVTSKNQVALHMNSVTPEDTAVYYCARAGIVVVPGPETFYYYDHGLDVWGQGTTVTVSS
VH 2: EVQLVESGGGLVQPGRSLRLSCAASGFTFDDYSMHWVRQAPGKGLEWVSGISWNSGSKGYADSVKGRFTISRDNAKNSLYLQMNSLRAEDTALYYCAKYGSGYGKFYHYGLDVWGQGTTVTVSS
VL: DIQMTQSPSSLSASVGDRVTITCRASQSIRSYLNWYQQKPGKAPELLIHAASSLQSGVPSRFSGSGSGTDFTLTISSLQPEDFASYYCQQSYSAPPITFGQGTRLEIK
In the case of B1, the Cyno PBMC Proliferation [M] (donor) [1] is reported as 4.59e-12 M and the EC50 [2] is reported as 7.27 nM.

B2: BSSTEAP2/CD3-006 (bispecific antibody, V domains shown)
VH 1: QVQLQQSGPGLVKPSQTLSLTCAISGDSVSSNRAAWNWIRQSPSRGLQWLGRTYYRSKWYNDYAVSLRSRITINPVTSKNQVALHMNSVTPEDTAVYYCARAGIVVVPGPETFYYYDHGLDVWGQGTTVTVSS
VH 2: EVQLVESGGGLVQPGRSLRLSCVASGFTFDDYSMHWVRQAPGKGLEWVSGISWNSGSKDYADSVKGRFTISRDNAKNSLYLQMNSLRAEDTALYYCAKYGSGYGKFYHYGLDVWGQGTTVTVSS
VL: DIQMTQSPSSLSASVGDRVTITCRASQSIRSYLNWYQQKPGKAPELLIHAASSLQSGVPSRFSGSGSGTDFTLTISSLQPEDFASYYCQQSYSAPPITFGQGTRLEIK
Work on B2 yielded a Cyno PBMC Proliferation [M] (donor) [1] of 1.53e-11 M and an EC50 [2] of 7.99 nM.

B3: CD3-VH-P (antibody, V domains shown)
VH: EVQLVESGGGLVQPGRSLRLSCVASGFTFDDYSMHWVRQAPGKGLEWVSGISWNSGSKDYADSVKGRFTISRDNAKNSLYLQMNSLRAEDTALYYCAKYGSGYGKFYHYGLDVWGQGTTVTVSS
VL: DIQMTQSPSSLSASVGDSVTITCRASQSINNYLNWYQQKPGKAPKLLIYTASSLLSGVPSRFSGSGSGTDFTLTISGLHPEDFATYFCQQSFSTPPITFGQGTRLDIK
B3 gave an EC50 [3] of 1 to 40 nM.

B4: BSSTEAP2/CD3-004 (bispecific antibody, IgG4, V domains shown)
VH 1: QVQLVESGGGVVQPGRSLRLSCVASGFTISSYGMNWVRQAPGKGLEWVAVISYDGGNKYSVDSVKGRFTISRDNSKNTLYLQMNSLRAEDSAVYYCARGRYFDLWGRGTLVTVSS
VH 2: EVQLVESGGGLVQPGRSLRLSCAASGFTFADYTMHWVRQGPGTGLEWVSDIGWSGGSLGYADSVKGRFTISRDNAKNSLYLEMNNLRPEDTALYYCVKDKSGYGKFQYGLDVWGQGTTVTVSS
VL: DIQMTQSPSTLSASVGDRVTITCRASQSISSWLAWYQQKPGRAPNLLISKASSLKSGVPSRFSGSGSGTEFTLTVSSLQPDDFATYYCQQYYSYSYTFGQGTKLEIK
With B4 the EC50 [2] was 1.99 nM.

B5: BSSTEAP2/CD3-007 (bispecific antibody, V domains shown)
VH 1: QVQLQQSGPGLVKPSQTLSLTCAISGDSVSSNRAAWNWIRQSPSRGLQWLGRTYYRSKWYNDYAVSLRSRITINPVTSKNQVALHMNSVTPEDTAVYYCARAGIVVVPGPETFYYYDHGLDVWGQGTTVTVSS
VH 2: EVQLVESGGGLVQPGRSLRLSCAASGFTFADYTMHWVRQAPGKGLEWVSDISWNSGSIAYADSVKGRFTISRDNAKNSLYLQMNSLRTEDTAFYYCAKDSRGYGHYKYLGLDVWGQGTTVTVSS
VL: DIQMTQSPSSLSASVGDRVTITCRASQSIRSYLNWYQQKPGKAPELLIHAASSLQSGVPSRFSGSGSGTDFTLTISSLQPEDFASYYCQQSYSAPPITFGQGTRLEIK
Binder B5 has an EC50 [2] of 17.3 nM.

From patent US20200376136A1
